Measured values taken from patent US10238736B2, “Adjuvant compositions” (priority 2008, dated 2019).

Tested on: OVA-specific CTL responses
Experiment: Relative CTL/cytokine/tetramer responses of mice immunized with OVA
Assay type: in vivo, C57131/6 mice
Protocol: Female C57131/6 mice (n=10 per group) with a body weight of about 18-20 g were used in the study. They were immunized via intramuscular (IM) injection into the left tibialis anterior muscle with a total volume of 50 μl on study days 0, 14 and 21.
A dose of the composition comprised, in various combinations, one or more of the following components: • Buffer: NaH2PO4.2H20 (229.32 mg/L), NaCl (1168.00 mg/L) and Na2HPO4 (1144.00 mg/L), dissolved in WFI and sterile filtered with a 0.1 μm filter. • Ovalbumin (OVA—Antigen): 10 μg • CpG ODN: 10 μg • Cholesterol: 1 μg • Quil A: 1 μg • DDA: 0.5 μg • Carbopol: 0.0375% • R1005: 50 μg Vaccine Preparation
Buffer was placed in a 50 ml flask with stir bar and stirred at a constant speed throughout all following steps. The components were added in the following order: Antigen (OVA); CPG ODN; Quil A; cholesterol (drop wise); DDA (drop wise); Carbopol®; and Bay R1005®. The composition was stirred at room temperature (approximately 25° C.) for a minimum of 30 minutes while protected from light by covering with foil. The solution was forced through a 25G needle into a syringe to break any large floating particles to obtain a uniform (cloudy) suspension and transferred to sterile glass vials for storage.
The following samples were collected: • Plasma: 4 weeks after the prime vaccination (1 week after second booster vaccination) • Cytotoxic T lymphocyte (CTL) (6 weeks after the prime vaccination (3 weeks after second booster vaccination) • Cytokine secretion in supernatant (4 weeks after the prime vaccination • 24-hour supernatant (IL-2, IL-4, IL-10, TNF • 72-hour supernatant (IFN-g • Tetramer (4 weeks after the prime vaccination • Cytokine producing T cells (6 weeks after the prime vaccination
The results are provided as a relative score that for each adjuvant showing the effect of the adjuvant. The endpoints are a relative scale based on the sum of the individual Cytotoxic T—Lymphocyte responses.

B1: OVA: Ovalbumin antigen, 10 μg, without adjuvant (protein, UniProt P01012 2-386, looked up)
Ovalbumin: GSIGAASMEFCFDVFKELKVHHANENIFYCPIAIMSALAMVYLGAKDSTRTQINKVVRFDKLPGFGDSIEAQCGTSVNVHSSLRDILNQITKPNDVYSFSLASRLYAEERYPILPEYLQCVKELYRGGLEPINFQTAADQARELINSWVESQTNGIIRNVLQPSSVDSQTAMVLVNAIVFKGLWEKAFKDEDTQAMPFRVTEQESKPVQMMYQIGLFRVASMASEKMKILELPFASGTMSMLVLLPDEVSGLEQLESIINFEKLTEWTSSNVMEERKIKVYLPRMKMEEKYNLTSVLMAMGITDVFSSSANLSGISSAESLKISQAVHAAHAEINEAGREVVGSAEAGVDAASVSEEFRADHPFLFCIKHIATNAVLFFGRCVSP
Relative score, 4 weeks after the prime vaccination
  Relative CTL Responses: Tetramer: 1
Relative score, 6 weeks after the prime vaccination
  Relative CTL Responses: CTL: 1
Relative score, 24-hour supernatant
  Relative CTL Responses: IL-2: 1
Relative score, 72-hour supernatant
  Relative CTL Responses: IFN-g: 1
Sum of the individual relative scores
  Relative CTL Responses: Total: 4
